The target of assay [1] is T1, rabbit serum albumin (rabbit, UniProt P49065 25-608).
T1 construct: also called Rabbit SA; BuSA
The experiment in a line: phage binding.

Assay [2] deals with T2, rat serum albumin (rat, UniProt P02770 25-608).
T2 construct: also called Rat SA; RSA
The experiment in a line: SPR (BIAcore), albumin on the chip. For orientation: In SPR one partner is held on a chip, and binding of the other changes the refractive index at the surface.

The target of assay [3] is T3, human serum albumin (human, UniProt P02768 25-609).
T3 construct: also called Human SA; HuSA
The experiment in a line: SPR (BIAcore), albumin on the chip.

In assay [4] the target is T1, rabbit serum albumin. Description: SPR (BIAcore), albumin on the chip.
In assay [5] the target is T4, mouse serum albumin (mouse, UniProt P07724 25-608).
T4 construct: also called Mouse SA; MuSA
T4 sequence (P07724 25-608 limits assumed): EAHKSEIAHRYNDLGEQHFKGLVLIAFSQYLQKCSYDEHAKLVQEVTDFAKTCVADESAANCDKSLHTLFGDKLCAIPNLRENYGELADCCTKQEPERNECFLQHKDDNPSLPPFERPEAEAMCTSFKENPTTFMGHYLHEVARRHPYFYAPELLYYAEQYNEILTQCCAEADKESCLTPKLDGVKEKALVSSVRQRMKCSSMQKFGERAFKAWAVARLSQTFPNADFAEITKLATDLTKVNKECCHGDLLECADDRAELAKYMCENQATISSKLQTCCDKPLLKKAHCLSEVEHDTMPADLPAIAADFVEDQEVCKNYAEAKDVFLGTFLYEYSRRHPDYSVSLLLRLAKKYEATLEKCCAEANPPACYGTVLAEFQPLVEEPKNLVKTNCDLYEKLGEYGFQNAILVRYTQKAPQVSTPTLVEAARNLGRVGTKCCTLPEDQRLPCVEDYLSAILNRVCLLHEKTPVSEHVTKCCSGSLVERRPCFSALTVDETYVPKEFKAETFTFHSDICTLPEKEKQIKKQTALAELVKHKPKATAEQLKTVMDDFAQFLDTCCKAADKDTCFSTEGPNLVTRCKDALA
Description: SA08 peptide competition.

The target of assay [6] is T1, rabbit serum albumin. Description: SA08 peptide competition.
The target of assay [7] is T1, rabbit serum albumin. The experiment in a line: peptide competition; head prints RSA, read as rabbit.
Assay [8] deals with T3, human serum albumin. The experiment in a line: phage binding.
Assay [9] has as its target T2, rat serum albumin. The experiment in a line: phage binding.
Assay [10] deals with T2, rat serum albumin. Description: peptide competition for albumin.
Assay [11] has as its target T4, mouse serum albumin. Description: peptide competition for albumin.
In assay [12] the target is T1, rabbit serum albumin. Description: peptide competition for albumin.

No end group written: not given here.

T1 sequence (P49065 25-608 limits assumed): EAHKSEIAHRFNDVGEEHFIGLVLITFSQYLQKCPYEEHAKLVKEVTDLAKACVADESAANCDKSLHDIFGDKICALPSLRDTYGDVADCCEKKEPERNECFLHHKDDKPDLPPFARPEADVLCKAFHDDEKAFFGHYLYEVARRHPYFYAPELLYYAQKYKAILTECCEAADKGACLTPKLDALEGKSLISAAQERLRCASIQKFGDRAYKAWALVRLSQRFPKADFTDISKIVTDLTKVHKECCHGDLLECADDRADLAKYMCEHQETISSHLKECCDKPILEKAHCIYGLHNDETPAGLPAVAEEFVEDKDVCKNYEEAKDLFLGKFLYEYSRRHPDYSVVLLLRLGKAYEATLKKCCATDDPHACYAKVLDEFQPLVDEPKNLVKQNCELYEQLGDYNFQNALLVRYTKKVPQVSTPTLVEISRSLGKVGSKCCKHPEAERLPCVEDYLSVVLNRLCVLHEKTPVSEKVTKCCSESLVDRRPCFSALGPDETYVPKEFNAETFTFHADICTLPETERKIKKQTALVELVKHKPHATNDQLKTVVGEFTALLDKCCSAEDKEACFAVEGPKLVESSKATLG
T2 sequence (P02770 25-608 limits assumed): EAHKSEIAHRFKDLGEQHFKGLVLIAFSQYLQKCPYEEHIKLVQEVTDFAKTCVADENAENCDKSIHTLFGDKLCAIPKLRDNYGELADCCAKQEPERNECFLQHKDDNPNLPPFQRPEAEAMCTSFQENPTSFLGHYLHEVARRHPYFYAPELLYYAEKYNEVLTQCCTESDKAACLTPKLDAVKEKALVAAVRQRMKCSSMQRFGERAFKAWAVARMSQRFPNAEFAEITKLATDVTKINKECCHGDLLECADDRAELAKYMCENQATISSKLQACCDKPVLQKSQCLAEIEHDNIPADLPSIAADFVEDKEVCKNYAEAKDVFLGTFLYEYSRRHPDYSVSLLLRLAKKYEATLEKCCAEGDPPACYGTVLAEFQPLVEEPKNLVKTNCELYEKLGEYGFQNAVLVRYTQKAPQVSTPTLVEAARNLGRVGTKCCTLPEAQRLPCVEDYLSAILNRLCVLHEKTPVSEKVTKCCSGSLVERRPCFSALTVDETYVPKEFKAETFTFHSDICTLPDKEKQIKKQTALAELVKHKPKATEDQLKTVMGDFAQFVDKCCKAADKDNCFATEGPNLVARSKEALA

In the case of MDELAFYCGIWECLMHQEQK (on phage) [BB], the binding result with rabbit serum albumin [1] is recorded as “binds”.

B1: SA15 (peptide)
peptide: GEWWEDICLPRWGCLWEEED-NH2
modifications: not fully specified (bridges); printed as GEWWEDICLPRWGCLWEEED-NH2; cysteine pairing not given here
notes: free peptide
As usually defined, the Kd is the equilibrium constant for the complex coming apart. A higher Kd goes with lower affinity. As a reminder, the IC50 is the concentration that inhibits the measured activity by half. Consider B1, for which the figures for the Kd with rat serum albumin [2], with human serum albumin [3] and in the assay with rabbit serum albumin [4] were 150 nM, 878 nM and 65 nM, respectively. For the same molecule, the IC50 amounted to 5 nM with mouse serum albumin [5] and 13 nM with rabbit serum albumin [6].
Ac-RLIEDICLPRWGCLWEDD-NH2 (cysteine pairing not given here, free peptide) [SA21] registered a Kd with rabbit serum albumin [4] of 320 nM. For the same molecule, the IC50 in the assay with rabbit serum albumin [7] turned out to be 270 nM; in the assay with mouse serum albumin [5], 7 nM; in the assay with rabbit serum albumin [6], 270 nM.
On to DLCDVDFCWF (on phage) [BC], for which the binding result with rabbit serum albumin [1] is on record as “binds”.
For the molecule EVRSFCTDWPAEKSCKPLRG (on phage; also called Library HA) [HA], in the assay with human serum albumin [8], the binding result was “binds”.
Regarding CGCVDVSDWDCWSECLWSHGA (on phage) [RE], the binding result with rat serum albumin [9] was “binds”.
On to QRQMVDFCLPQWGCLWGDGF (on phage; also called Library RB) [RB], for which the binding result with rat serum albumin [9], with human serum albumin [8] and in the assay with rabbit serum albumin [1] was “binds” in each case.
Ac-QGLIGDICLPRWGCLWGDSVK-NH2 (cysteine pairing not given here, free peptide) [SA08]: the Kd with rat serum albumin [2] was 158 nM; with human serum albumin [3], 858 nM; in the assay with rabbit serum albumin [4], 108 nM. Also, the IC50 in the assay with mouse serum albumin [5] turned out to be 12 nM; with rat serum albumin [10] it was 68 nM; in the assay with mouse serum albumin [11], 10 nM; with rabbit serum albumin [12] it was 63 nM.
Regarding KSCSELHWLLVEECLF (not fully specified (bridges); cysteine pairing not given here, on phage) [BD], in the assay with rabbit serum albumin [1], the binding result is “binds”.
Consider EMCYFPGICWM (on phage; also called Library HC) [HC], for which the binding result with rat serum albumin [9] and in the assay with human serum albumin [8] was “binds” each time.
Turning to RAPESFVCYWETICFERSEQ (on phage; also called Library HB) [HB], in the assay with human serum albumin [8], the binding result is “binds”.
In the case of GENWCDSTLMAYDLCGQVNM (on phage; also called Library BA) [BA], in the assay with rabbit serum albumin [1], the binding result is recorded as “binds”.

The values are drawn from patent US20060073152A1 (Genentech, published 2006).
